Target: MSC membrane glycoproteins (plasminogen membrane receptors) (human (endogenous in MSCs))

In the case of Glu-plasminogen (natural protein), the Michaelis-Menten constant of plasmin formation on scuPA-treated MSCs, plasminogen 0-2 μM, chromogenic substrate CBS0065 is reported as 0.5 µM.

Source: PMC12256440
